The values below come from the Human Domainome abundance scans (Beltran et al. 2025).

± gives the uncertainty stated by the source.

B1: Tumor protein p73, residues 487 to 549; numbered along this chain, O15350 (parent)
chain: YHADPSLVSFLTGLGCPNCIEYFTSQGLQSIYHLQNLTIEDLGALKIPEQYRMTIWRGLQDLK

The variants in the data set derive from B1. The data set can be described thus: abundance fitness (aPCA) (normalised: wild type 0, dead -1); higher = more abundant; growth selection in yeast, the domain comes from the species named. The settings on record: Homo sapiens.
YHADPSLVSFLTGLGCPNCIEYFTSQGLQSIYHLQNLTIEDLEALKIPEQYRMTIWRGLQDLK [G43E]: the abundance fitness is 0.07 ± 0.061.
Take YHADPSLVSFLTGLGCPNCIEYFTSQGLQSIYHLQNLTIEDLHALKIPEQYRMTIWRGLQDLK [G43H]: the abundance fitness turned out to be 0.16 ± 0.11.
Next, YHADPSLVSFLTGLGCPNCIEYFTSQGLQSIYHLQNLTIEDLLALKIPEQYRMTIWRGLQDLK [G43L]: 0.033 ± 0.046; YHADPSLVSFLTGLGCPNCIEYFTSQGLQSIYHLQNLTIEDLSALKIPEQYRMTIWRGLQDLK [G43S]: -0.013 ± 0.05.
Next, YHADPSLVSFLTGLGCPNCIEYFTSQGLQSIYHLQNLTIEDLWALKIPEQYRMTIWRGLQDLK [G43W]: -0.135 ± 0.056; YHADPSLVSFLTGLGCPNCIEYFTSQGLQSIYHLQNLTIEDLRALKIPEQYRMTIWRGLQDLK [G43R]: -0.016 ± 0.042.
Next, YHADPSLVSFLTGLGCPNCIEYFTSQGLQSIYHLQNLTIEDLDALKIPEQYRMTIWRGLQDLK [G43D]: -0.085 ± 0.082; YHADPSLVSFLTGLGCPNCIEYFTSQGLQSIYHLQNLTIEDLAALKIPEQYRMTIWRGLQDLK [G43A]: -0.102 ± 0.053; YHADPSLVSFLTGLGCPNCIEYFTSQGLQSIYHLQNLTIEDLPALKIPEQYRMTIWRGLQDLK [G43P]: -0.012 ± 0.085.
Regarding YHADPSLVSFLTGLGCPNCIEYFTSQGLQSIYHLQNLTIEDLKALKIPEQYRMTIWRGLQDLK [G43K], the abundance fitness is 0.119 ± 0.047.
Next, YHADPSLVSFLTGLGCPNCIEYFTSQGLQSIYHLQNLTIEDLQALKIPEQYRMTIWRGLQDLK [G43Q]: 0.061 ± 0.046.
Under YHADPSLVSFLTGLGCPNCIEYFTSQGLQSIYHLQNLTIEDLYALKIPEQYRMTIWRGLQDLK [G43Y] stands -0.005 ± 0.069; under YHADPSLVSFLTGLGCPNCIEYFTSQGLQSIYHLQNLTIEDLTALKIPEQYRMTIWRGLQDLK [G43T], 0.003 ± 0.052; under YHADPSLVSFLTGLGCPNCIEYFTSQGLQSIYHLQNLTIEDLIALKIPEQYRMTIWRGLQDLK [G43I], -0.135 ± 0.1.
Under YHADPSLVSFLTGLGCPNCIEYFTSQGLQSIYHLQNLTIEDLVALKIPEQYRMTIWRGLQDLK [G43V] stands -0.018 ± 0.053.
Turning to YHADPSLVSFLTGLGCPNCIEYFTSQGLQSIYHLQNLTIEDLMALKIPEQYRMTIWRGLQDLK [G43M], the abundance fitness was determined as 0.028 ± 0.066.
Under YHADPSLVSFLTGLGCPNCIEYFTSQGLQSIYHLQNLTIEDLCALKIPEQYRMTIWRGLQDLK [G43C] stands -0.049 ± 0.21; under YHADPSLVSFLTGLGCPNCIEYFTSQGLQSIYHLQNLTIEDLNALKIPEQYRMTIWRGLQDLK [G43N], -0.003 ± 0.1; under YHADPSLVSFLTGLGCPNCIEYFTSQGLQSIYHLQNLTIEDRGALKIPEQYRMTIWRGLQDLK [L42R], -0.733 ± 0.051.
As for YHADPSLVSFLTGLGCPNCIEYFTSQGLQSIYHLQNLTIEDWGALKIPEQYRMTIWRGLQDLK [L42W], the abundance fitness was determined as 0.072 ± 0.033.
Next, YHADPSLVSFLTGLGCPNCIEYFTSQGLQSIYHLQNLTIEDVGALKIPEQYRMTIWRGLQDLK [L42V]: -0.127 ± 0.028; YHADPSLVSFLTGLGCPNCIEYFTSQGLQSIYHLQNLTIEDTGALKIPEQYRMTIWRGLQDLK [L42T]: -0.45 ± 0.062; YHADPSLVSFLTGLGCPNCIEYFTSQGLQSIYHLQNLTIEDSGALKIPEQYRMTIWRGLQDLK [L42S]: -0.785 ± 0.08.
Next, YHADPSLVSFLTGLGCPNCIEYFTSQGLQSIYHLQNLTIEDYGALKIPEQYRMTIWRGLQDLK [L42Y]: -0.02 ± 0.098; YHADPSLVSFLTGLGCPNCIEYFTSQGLQSIYHLQNLTIEDPGALKIPEQYRMTIWRGLQDLK [L42P]: -0.696 ± 0.11.
Next, YHADPSLVSFLTGLGCPNCIEYFTSQGLQSIYHLQNLTIEDQGALKIPEQYRMTIWRGLQDLK [L42Q]: -0.512 ± 0.063; YHADPSLVSFLTGLGCPNCIEYFTSQGLQSIYHLQNLTIEDLGAHKIPEQYRMTIWRGLQDLK [L45H]: -0.45 ± 0.15; YHADPSLVSFLTGLGCPNCIEYFTSQGLQSIYHLQNLTIEDLGAIKIPEQYRMTIWRGLQDLK [L45I]: 0.067 ± 0.076.
Consider YHADPSLVSFLTGLGCPNCIEYFTSQGLQSIYHLQNLTIEDLGAGKIPEQYRMTIWRGLQDLK [L45G], for which the abundance fitness is -0.517 ± 0.046.
Under YHADPSLVSFLTGLGCPNCIEYFTSQGLQSIYHLQNLTIEDLGAEKIPEQYRMTIWRGLQDLK [L45E] stands -0.553 ± 0.07; under YHADPSLVSFLTGLGCPNCIEYFTSQGLQSIYHLQNLTIEDLGAWKIPEQYRMTIWRGLQDLK [L45W], -0.345 ± 0.047; under YHADPSLVSFLTGLGCPNCIEYFTSQGLQSIYHLQNLTIEDLGAAKIPEQYRMTIWRGLQDLK [L45A], -0.18 ± 0.042.
Under YHADPSLVSFLTGLGCPNCIEYFTSQGLQSIYHLQNLTIEDLGARKIPEQYRMTIWRGLQDLK [L45R] stands -0.241 ± 0.032; under YHADPSLVSFLTGLGCPNCIEYFTSQGLQSIYHLQNLTIEDLGAYKIPEQYRMTIWRGLQDLK [L45Y], 0.04 ± 0.1; under YHADPSLVSFLTGLGCPNCIEYFTSQGLQSIYHLQNLTIEDLGATKIPEQYRMTIWRGLQDLK [L45T], -0.076 ± 0.039.
Under YHADPSLVSFLTGLGCPNCIEYFTSQGLQSIYHLQNLTIEDLGACKIPEQYRMTIWRGLQDLK [L45C] stands -0.016 ± 0.041.
Consider YHADPSLVSFLTGLGCPNCIEYFTSQGLQSIYHLQNLTIEDLGAMKIPEQYRMTIWRGLQDLK [L45M], for which the abundance fitness came to 0.023 ± 0.038.
Under YHADPSLVSFLTGLGCPNCIEYFTSQGLQSIYHLQNLTIEDLGASKIPEQYRMTIWRGLQDLK [L45S] stands -0.272 ± 0.04.
In the case of YHADPSLVSFLTGLGCPNCIEYFTSQGLQSIYHLQNLTIEDLGANKIPEQYRMTIWRGLQDLK [L45N], the abundance fitness was -0.224 ± 0.091.
On to YHADPSLVSFLTGLGCPNCIEYFTSQGLQSIYHLQNLTIEDLGAQKIPEQYRMTIWRGLQDLK [L45Q], for which the abundance fitness was -0.518 ± 0.083.
Next, YHADPSLVSFLTGLGCPNCIEYFTSQGLQSIYHLQNLTIEDLGADKIPEQYRMTIWRGLQDLK [L45D]: -0.609 ± 0.15; YHADPSLVSFLTGLGCPNCIEYFTSQGLQSIYHLQNLTIEDLGAKKIPEQYRMTIWRGLQDLK [L45K]: -0.216 ± 0.076.
